T1: TFAM (UniProt Q00059 43-246)
T1 sequence: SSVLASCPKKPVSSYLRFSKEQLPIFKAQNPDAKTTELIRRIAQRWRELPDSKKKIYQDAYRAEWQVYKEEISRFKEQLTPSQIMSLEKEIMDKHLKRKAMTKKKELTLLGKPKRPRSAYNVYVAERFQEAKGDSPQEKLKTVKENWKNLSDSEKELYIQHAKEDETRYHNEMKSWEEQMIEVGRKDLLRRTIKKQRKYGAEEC

B1: DNA2GG (dsDNA)
DNA 1: CTGAAGCCAGTTACCTTTGAAAAAAGAGTTGGTAGCTCTTGATCCAGGAATTCAACCACCGCTGGTAGCGGTGGTTTTTTTATTTGCAAGCAGCAGATTA
DNA 2: TAATCTGCTGCTTGCAAATAAAAAAACCACCGCTACCAGCGGTGGTTGAATTCCTGGATCAAGAGCTACCAACTCTTTTTTCAAAGGTAACTGGCTTCAG
B2: DNAAA (dsDNA)
DNA 1: AAAAAGAATCATTTGGATATATAGGTAT
DNA 2: ATACCTATATATCCAAATGATTCTTTTT
B3: NS2 (dsDNA)
DNA 1: ATCGGAAAGATAATCGAGAATC
DNA 2: GATTCTCGATTATCTTTCCGAT
B4: DNAGG (dsDNA)
DNA 1: AAAAAGAACCATTTGGATACATAGGTAT
DNA 2: ATACCTATGTATCCAAATGGTTCTTTTT
B5: LSP_B (dsDNA)
DNA 1: AATTGTCAGTGGGGGGTTGATT
DNA 2: AATCAACCCCCCACTGACAATT

Assays:
TFAM [1] = biological target: T1, TFAM; assay: EcoRI cleavage protection; 10 mM MgCl2, 50 mM NaCl; EMSA: 10 mM HEPES pH 8.0, 500 mM NaCl, 2 mM DTT, 130 ug/ml BSA, 5% glycerol, 100 nM DNA, 30 min on ice then 10 min RT; FP: 10 mM HEPES pH 8.0, 150-400 mM NaCl; conditions: protein: recombinant; tags: His-MBP N-terminal, removed by TEV; blunt
TFAM [2] = biological target: T1, TFAM; assay: fluorescence polarization; 150 mM NaCl; EMSA: 10 mM HEPES pH 8.0, 500 mM NaCl, 2 mM DTT, 130 ug/ml BSA, 5% glycerol, 100 nM DNA, 30 min on ice then 10 min RT; FP: 10 mM HEPES pH 8.0, 150-400 mM NaCl; conditions: protein: recombinant; tags: His-MBP N-terminal, removed by TEV; label: 5'-Cy3 on strand 1 (EMSA); 6-FAM (FP); blunt
TFAM [3] = biological target: T1, TFAM; assay: fluorescence polarization; 200 mM NaCl; EMSA: 10 mM HEPES pH 8.0, 500 mM NaCl, 2 mM DTT, 130 ug/ml BSA, 5% glycerol, 100 nM DNA, 30 min on ice then 10 min RT; FP: 10 mM HEPES pH 8.0, 150-400 mM NaCl; conditions: protein: recombinant; tags: His-MBP N-terminal, removed by TEV; label: 5'-Cy3 on strand 1 (EMSA); 6-FAM (FP); blunt
TFAM [4] = biological target: T1, TFAM; assay: fluorescence polarization; 250 mM NaCl; EMSA: 10 mM HEPES pH 8.0, 500 mM NaCl, 2 mM DTT, 130 ug/ml BSA, 5% glycerol, 100 nM DNA, 30 min on ice then 10 min RT; FP: 10 mM HEPES pH 8.0, 150-400 mM NaCl; conditions: protein: recombinant; tags: His-MBP N-terminal, removed by TEV; label: 5'-Cy3 on strand 1 (EMSA); 6-FAM (FP); blunt
TFAM [5] = biological target: T1, TFAM; assay: fluorescence polarization; 300 mM NaCl; EMSA: 10 mM HEPES pH 8.0, 500 mM NaCl, 2 mM DTT, 130 ug/ml BSA, 5% glycerol, 100 nM DNA, 30 min on ice then 10 min RT; FP: 10 mM HEPES pH 8.0, 150-400 mM NaCl; conditions: protein: recombinant; tags: His-MBP N-terminal, removed by TEV; label: 5'-Cy3 on strand 1 (EMSA); 6-FAM (FP); blunt
TFAM [6] = biological target: T1, TFAM; assay: fluorescence polarization; 350 mM NaCl; EMSA: 10 mM HEPES pH 8.0, 500 mM NaCl, 2 mM DTT, 130 ug/ml BSA, 5% glycerol, 100 nM DNA, 30 min on ice then 10 min RT; FP: 10 mM HEPES pH 8.0, 150-400 mM NaCl; conditions: protein: recombinant; tags: His-MBP N-terminal, removed by TEV; label: 5'-Cy3 on strand 1 (EMSA); 6-FAM (FP); blunt
TFAM [7] = biological target: T1, TFAM; assay: X-ray crystallography; 2.84 A; one TFAM bridges two DNA molecules; EMSA: 10 mM HEPES pH 8.0, 500 mM NaCl, 2 mM DTT, 130 ug/ml BSA, 5% glycerol, 100 nM DNA, 30 min on ice then 10 min RT; FP: 10 mM HEPES pH 8.0, 150-400 mM NaCl; conditions: protein: recombinant; tags: His-MBP N-terminal, removed by TEV; 2 DNA molecules bridged per TFAM; ends stacked
TFAM [8] = biological target: T1, TFAM; assay: EMSA; 500 mM NaCl; apparent Kd; EMSA: 10 mM HEPES pH 8.0, 500 mM NaCl, 2 mM DTT, 130 ug/ml BSA, 5% glycerol, 100 nM DNA, 30 min on ice then 10 min RT; FP: 10 mM HEPES pH 8.0, 150-400 mM NaCl; conditions: protein: recombinant; tags: His-MBP N-terminal, removed by TEV; label: 5'-Cy3 on strand 1 (EMSA); 6-FAM (FP); blunt
TFAM [9] = biological target: T1, TFAM; assay: X-ray crystallography; 2.7 A; EMSA: 10 mM HEPES pH 8.0, 500 mM NaCl, 2 mM DTT, 130 ug/ml BSA, 5% glycerol, 100 nM DNA, 30 min on ice then 10 min RT; FP: 10 mM HEPES pH 8.0, 150-400 mM NaCl; conditions: protein: recombinant; tags: His-MBP N-terminal, removed by TEV

Binder | Kd (TFAM [2]) | Kd (TFAM [3]) | Kd (TFAM [4]) | Kd (TFAM [5]) | Kd (TFAM [6]) | other results
B1 |  |  |  |  |  | binding result (TFAM [1]): binds
B2 | 12 ± 1.5 nM | 79 ± 1.4 nM | 287 ± 15.7 nM | 877 ± 38.5 nM | 3850 ± 425 nM | 
B3 |  |  |  |  |  | binding result (TFAM [7]): binds
B4 | 13.5 ± 0.1 nM | 55.5 ± 6 nM | 259 ± 48.2 nM | 1210 ± 113 nM | 5180 ± 502 nM | Kd (TFAM [8]): 86.1 ± 14.3 nM
B5 |  |  |  |  |  | binding result (TFAM [9]): binds

Source: PMC8754647, “A minimal motif for sequence recognition by mitochondrial transcription factor A (TFAM)”
